According to publication PMC5827449, “Structural analysis of group II chitinase (ChtII) catalysis completes the puzzle of chitin hydrolysis in insects” (The Journal of Biological Chemistry, 2018):

System: T1, CC(=O)N[C@H]1[C@H](Oc2ccc3c(C)cc(=O)oc3c2)O[C@H](CO)[C@@H](O[C@@H]2O[C@H](CO)[C@@H](O)[C@H](O)[C@H]2NC(C)=O)[C@@H]1O
T1 construct: single GH18 catalytic domain C1 (core 1613-1855 and 1940-1988, insertion domain 1856-1939); His-tag purified from Pichia pastoris GS115
Experiment: fluorescence of released 4-methylumbelliferone
Format: biochemical, Ostrinia furnacalis
Settings: pH 6.0, 20 mM sodium phosphate, 303 K, 20 min, 30.0 °C
Excerpt: fluorescence of released 4-methylumbelliferone on OfChtII-C1

Substance: OfChtII-C1 (Ostrinia furnacalis; A1877I/D1864N/D1876G/DEL1865-1874/G1863E/K1875R/N1878H)
- Km: 15.52 ± 0.98 µM
- kcat: 0.5498 ± 0.0108 s⁻¹
- kcat/Km: 35500 M⁻¹ s⁻¹
